Reference: IntAct's records for PubMed 31515488

Columns and labels:
traf1_human TRAF1 = traf1_human TRAF1 (UniProt Q13077)
txnd5_human TXNDC5 = txnd5_human TXNDC5 (UniProt Q8NBS9)
sdcb1_human SDCBP = sdcb1_human SDCBP (UniProt O00560)
lmo4_human LMO4 = lmo4_human LMO4 (UniProt P61968)
prp31_human PRPF31 = prp31_human PRPF31 (UniProt Q8WWY3)
ut14c_human UTP14C = ut14c_human UTP14C (UniProt Q5TAP6)
mare1_human MAPRE1 = mare1_human MAPRE1 (UniProt Q15691)
goga2_human GOLGA2 = target: T1, goga2_human GOLGA2 (UniProt Q08379)
T1 sequence: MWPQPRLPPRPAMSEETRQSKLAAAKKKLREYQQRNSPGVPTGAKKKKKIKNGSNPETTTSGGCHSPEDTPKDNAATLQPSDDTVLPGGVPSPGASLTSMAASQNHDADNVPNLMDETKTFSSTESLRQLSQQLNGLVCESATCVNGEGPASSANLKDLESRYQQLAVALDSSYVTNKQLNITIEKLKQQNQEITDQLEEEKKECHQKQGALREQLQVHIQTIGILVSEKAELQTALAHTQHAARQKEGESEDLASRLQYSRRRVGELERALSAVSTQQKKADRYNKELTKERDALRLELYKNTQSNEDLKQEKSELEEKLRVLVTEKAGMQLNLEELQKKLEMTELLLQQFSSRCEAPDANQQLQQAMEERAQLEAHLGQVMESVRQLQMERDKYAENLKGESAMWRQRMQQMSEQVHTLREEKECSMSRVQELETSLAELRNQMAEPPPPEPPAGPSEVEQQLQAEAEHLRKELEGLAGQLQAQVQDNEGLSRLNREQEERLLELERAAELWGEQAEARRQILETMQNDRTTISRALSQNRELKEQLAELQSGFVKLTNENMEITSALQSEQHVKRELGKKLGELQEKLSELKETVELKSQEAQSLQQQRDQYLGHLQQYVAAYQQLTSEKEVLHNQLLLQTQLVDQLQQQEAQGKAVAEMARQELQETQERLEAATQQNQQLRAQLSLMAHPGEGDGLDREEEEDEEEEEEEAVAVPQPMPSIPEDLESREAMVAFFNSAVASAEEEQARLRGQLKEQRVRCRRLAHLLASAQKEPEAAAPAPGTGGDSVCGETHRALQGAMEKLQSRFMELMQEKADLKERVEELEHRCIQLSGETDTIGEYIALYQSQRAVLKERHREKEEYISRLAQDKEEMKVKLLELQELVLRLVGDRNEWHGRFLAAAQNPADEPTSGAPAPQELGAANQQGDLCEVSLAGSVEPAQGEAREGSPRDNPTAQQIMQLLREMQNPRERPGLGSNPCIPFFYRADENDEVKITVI

fsd2_human FSD2 = target: T2, fsd2_human FSD2 (UniProt A1L4K1)
T2 sequence: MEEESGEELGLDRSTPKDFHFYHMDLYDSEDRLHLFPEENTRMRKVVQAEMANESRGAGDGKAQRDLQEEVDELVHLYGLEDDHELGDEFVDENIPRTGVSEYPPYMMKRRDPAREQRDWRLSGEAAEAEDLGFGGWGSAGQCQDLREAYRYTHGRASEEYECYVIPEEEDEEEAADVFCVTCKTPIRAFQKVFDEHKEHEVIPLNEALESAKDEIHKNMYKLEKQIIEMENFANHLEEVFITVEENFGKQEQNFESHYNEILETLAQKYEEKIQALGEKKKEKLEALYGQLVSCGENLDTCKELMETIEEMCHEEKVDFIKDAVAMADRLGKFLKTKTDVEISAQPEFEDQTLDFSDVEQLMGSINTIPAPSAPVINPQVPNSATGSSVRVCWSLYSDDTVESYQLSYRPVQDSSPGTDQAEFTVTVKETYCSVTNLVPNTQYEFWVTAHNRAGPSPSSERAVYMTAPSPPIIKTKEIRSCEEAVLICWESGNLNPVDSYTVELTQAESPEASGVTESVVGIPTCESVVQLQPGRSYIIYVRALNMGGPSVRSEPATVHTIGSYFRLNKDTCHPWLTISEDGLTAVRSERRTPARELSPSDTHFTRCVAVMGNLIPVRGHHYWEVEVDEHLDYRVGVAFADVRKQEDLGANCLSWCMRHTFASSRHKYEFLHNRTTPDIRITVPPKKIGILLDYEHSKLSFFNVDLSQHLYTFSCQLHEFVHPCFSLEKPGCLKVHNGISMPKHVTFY

hem1_human ALAS1 = hem1_human ALAS1 (UniProt P13196)
TSC22D4 = TSC22D4 (UniProt Q9Y3Q8)
vps29_human VPS29 = vps29_human VPS29 (UniProt Q9UBQ0)
mycd_human MYOCD = target: T3, mycd_human MYOCD (UniProt Q8IZQ8)
T3 sequence: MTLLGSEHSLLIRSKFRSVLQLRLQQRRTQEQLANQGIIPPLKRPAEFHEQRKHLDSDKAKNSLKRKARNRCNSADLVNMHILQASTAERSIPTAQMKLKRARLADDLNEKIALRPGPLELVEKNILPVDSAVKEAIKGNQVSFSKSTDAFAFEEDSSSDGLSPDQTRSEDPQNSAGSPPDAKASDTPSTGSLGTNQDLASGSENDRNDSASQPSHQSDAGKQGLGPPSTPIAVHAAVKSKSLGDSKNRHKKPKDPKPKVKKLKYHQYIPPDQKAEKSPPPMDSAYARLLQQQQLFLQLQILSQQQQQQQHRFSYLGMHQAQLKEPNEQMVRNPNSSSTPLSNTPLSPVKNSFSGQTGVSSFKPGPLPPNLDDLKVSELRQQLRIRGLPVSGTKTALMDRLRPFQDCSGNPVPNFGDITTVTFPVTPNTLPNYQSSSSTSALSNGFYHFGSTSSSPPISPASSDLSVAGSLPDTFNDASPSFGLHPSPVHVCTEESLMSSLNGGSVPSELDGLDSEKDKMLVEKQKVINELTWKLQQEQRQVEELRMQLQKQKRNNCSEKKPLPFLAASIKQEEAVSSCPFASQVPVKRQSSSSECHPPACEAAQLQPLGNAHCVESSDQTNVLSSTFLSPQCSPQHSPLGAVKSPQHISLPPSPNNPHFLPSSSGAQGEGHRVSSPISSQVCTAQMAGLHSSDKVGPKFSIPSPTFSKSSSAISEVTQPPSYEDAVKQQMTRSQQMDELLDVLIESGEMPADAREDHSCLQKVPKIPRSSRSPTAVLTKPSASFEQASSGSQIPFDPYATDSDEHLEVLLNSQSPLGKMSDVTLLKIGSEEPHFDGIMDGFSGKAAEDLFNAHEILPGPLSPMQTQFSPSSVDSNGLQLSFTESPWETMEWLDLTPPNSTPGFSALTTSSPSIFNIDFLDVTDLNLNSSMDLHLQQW

gt253_human CERCAM = gt253_human CERCAM (UniProt Q5T4B2)
vtnc_human VTN = vtnc_human VTN (UniProt P04004)
cep63_human CEP63 = cep63_human CEP63 (UniProt Q96MT8)
mtus2_human MTUS2 = mtus2_human MTUS2 (UniProt Q5JR59)
fxl18_human FBXL18 = fxl18_human FBXL18 (UniProt Q96ME1)

Zinc finger protein 502 (Homo sapiens), Q8TBZ5 Q174R
effect of a mutation on the interaction (traf1_human TRAF1): with no effect

Mannose-1-phosphate guanylyltransferase catalytic subunit beta (Homo sapiens), Q9Y5P6 H126D
effect of a mutation on the interaction (txnd5_human TXNDC5): with no effect

Mannose-1-phosphate guanylyltransferase catalytic subunit beta (Homo sapiens), Q9Y5P6 R158Q
effect of a mutation on the interaction (txnd5_human TXNDC5): with no effect

Myomegalin (Homo sapiens), Q5VU43 E391A
effect of a mutation on the interaction (sdcb1_human SDCBP): with no effect
effect of a mutation on the interaction (lmo4_human LMO4): with no effect
effect of a mutation on the interaction (prp31_human PRPF31): with no effect
effect of a mutation on the interaction (ut14c_human UTP14C): with no effect
effect of a mutation on the interaction (mare1_human MAPRE1): with no effect

Parafibromin (Homo sapiens) (from UniProt Q6P1J9) R156H
effect of a mutation on the interaction (goga2_human GOLGA2): with no effect
effect of a mutation on the interaction (fsd2_human FSD2): with no effect
effect of a mutation on the interaction (hem1_human ALAS1): with no effect

Nuclear receptor-binding protein (Homo sapiens), Q9UHY1 V365I
effect of a mutation on the interaction (TSC22D4): with no effect

Vacuolar protein sorting-associated protein 35 (Homo sapiens) (from UniProt Q96QK1) L227F
effect of a mutation on the interaction (vps29_human VPS29): with no effect

Myomegalin (Homo sapiens), Q5VU43 I612T
effect of a mutation on the interaction (sdcb1_human SDCBP): with no effect
effect of a mutation on the interaction (lmo4_human LMO4): with no effect
effect of a mutation on the interaction (prp31_human PRPF31): with no effect
effect of a mutation on the interaction (ut14c_human UTP14C): with no effect
effect of a mutation on the interaction (mare1_human MAPRE1): with no effect

Vacuolar protein sorting-associated protein 35 (Homo sapiens) (from UniProt Q96QK1) D620N
effect of a mutation on the interaction (vps29_human VPS29): with no effect

Parafibromin (Homo sapiens) (from UniProt Q6P1J9) R147C
effect of a mutation on the interaction (goga2_human GOLGA2): with no effect
effect of a mutation on the interaction (fsd2_human FSD2): with no effect
effect of a mutation on the interaction (hem1_human ALAS1): with no effect

Golgi-associated PDZ and coiled-coil motif-containing protein (Homo sapiens) (from UniProt Q9HD26) G53E
effect of a mutation on the interaction (mycd_human MYOCD): disrupting interaction strength
effect of a mutation on the interaction (gt253_human CERCAM): disrupting interaction strength
effect of a mutation on the interaction (vtnc_human VTN): disrupting interaction strength

Histone-lysine N-methyltransferase EZH2 (Homo sapiens), Q15910-2 N640K
effect of a mutation on the interaction (cep63_human CEP63): with no effect

Myomegalin (Homo sapiens), Q5VU43 M783I
effect of a mutation on the interaction (sdcb1_human SDCBP): with no effect
effect of a mutation on the interaction (lmo4_human LMO4): with no effect
effect of a mutation on the interaction (prp31_human PRPF31): with no effect
effect of a mutation on the interaction (ut14c_human UTP14C): with no effect
effect of a mutation on the interaction (mare1_human MAPRE1): with no effect

Zinc finger protein 502 (Homo sapiens), Q8TBZ5 E243A
effect of a mutation on the interaction (traf1_human TRAF1): with no effect

Parafibromin (Homo sapiens) (from UniProt Q6P1J9) L95P
effect of a mutation on the interaction (goga2_human GOLGA2): disrupting interaction strength
effect of a mutation on the interaction (fsd2_human FSD2): disrupting interaction strength
effect of a mutation on the interaction (hem1_human ALAS1): disrupting interaction strength

Zinc finger protein 502 (Homo sapiens), Q8TBZ5 T184A
effect of a mutation on the interaction (traf1_human TRAF1): with no effect

Histone-lysine N-methyltransferase EZH2 (Homo sapiens), Q15910-2 R288Q
effect of a mutation on the interaction (cep63_human CEP63): with no effect

Nuclear receptor-binding protein (Homo sapiens), Q9UHY1 P432L
effect of a mutation on the interaction (TSC22D4): with no effect

Vacuolar protein sorting-associated protein 35 (Homo sapiens) (from UniProt Q96QK1) R524W
effect of a mutation on the interaction (vps29_human VPS29): with no effect

Zinc finger protein 224 (Homo sapiens), Q9NZL3 K640E
effect of a mutation on the interaction (mtus2_human MTUS2): with no effect

NEDD4-like E3 ubiquitin-protein ligase WWP2 (Homo sapiens), O00308 R178Q
effect of a mutation on the interaction (fxl18_human FBXL18): with no effect

Zinc finger protein 224 (Homo sapiens), Q9NZL3 Q447H
effect of a mutation on the interaction (mtus2_human MTUS2): with no effect
